One assay deals with HLA-A*23:01. Description: IEDB peptide-MHC binding, purified MHC/competitive/radioactivity; filed as Kd, often an IC50 or EC50 that approximates it; ≥ and ≤ were set here for values at or beyond the usual limits of such assays.
The target of assay [1] is HLA-A*26:01. The description is as above.
For the next assay, the target named is HLA-A*24:02. Described as above.
In the next assay the target is HLA-A*29:02. The description is as above.
Another assay concerns the target HLA-A*30:02. Described as above.
The target of another assay is HLA-A*01:01. The assay is described as above.
A further assay has as its target HLA-B*51:01. Described as above.
For a further assay, the target named is HLA-B*35:01. The assay is described as above.
A further assay deals with HLA-B*53:01. The description is as above. To be noted: source organism: Dengue virus 1 Singapore/S275/1990.
The target of assay [2] is HLA-A*26:01. In words: IEDB peptide-MHC binding, purified MHC/direct/fluorescence; filed as Kd, often an IC50 or EC50 that approximates it; ≥ and ≤ were set here for values at or beyond the usual limits of such assays. The note with it: source organism: West Nile virus.
The target of the next assay is HLA-A*32:01. Description: IEDB peptide-MHC binding, purified MHC/competitive/radioactivity; filed as Kd, often an IC50 or EC50 that approximates it; ≥ and ≤ were set here for values at or beyond the usual limits of such assays.
A further assay has as its target HLA-A*30:01. Described as above.
Where [3] appears, read: source organism: SARS coronavirus Tor2.
[4] abbreviates: source organism: Dengue virus 1 Singapore/S275/1990.
[5] abbreviates: source organism: Dengue virus 4 Philippines/H241/1956.
Setting [6] is: source organism: Lymphocytic choriomeningitis virus (strain Armstrong).
Where [7] appears, read: source organism: Mammarenavirus guanaritoense.

These results are taken from the Immune Epitope Database (IEDB).

By Kd is commonly meant the equilibrium constant for the complex coming apart.

Consider DSSQGSEYDY, for which the Kd with HLA-A*23:01 (setting [3]) is not below 70000 nM; in the assay with HLA-A*26:01 [1] (setting [3]), 7270 nM; with HLA-A*24:02 (setting [3]), not below 70300 nM; with HLA-A*29:02 (setting [3]), 1350 nM; with HLA-A*30:02 (setting [3]), 151 nM; with HLA-A*01:01 (setting [3]), 151 nM.
Consider LPVLLGSLGC, for which the values for the Kd with HLA-B*51:01 (setting [4]), with HLA-B*35:01 (setting [4]) and with HLA-B*53:01 were not below 20100 nM, 2030 nM and 199 nM, respectively.
For the sequence AYMLFTKFFY, the Kd was 0.115 nM with HLA-A*23:01 (setting [3]); 83.5 nM in the assay with HLA-A*26:01 [1] (setting [3]); 0.241 nM in the assay with HLA-A*24:02 (setting [3]); 0.00115 nM in the assay with HLA-A*29:02 (setting [3]); 339 nM with HLA-A*01:01 (setting [3]).
As to TCDWTNAGDY, the Kd with HLA-A*23:01 (setting [3]) was not below 70000 nM; with HLA-A*26:01 [1] (setting [3]) it was not below 25000 nM; in the assay with HLA-A*24:02 (setting [3]) it was not below 70300 nM; with HLA-A*29:02 (setting [3]), 2020 nM; with HLA-A*30:02 (setting [3]) it was 672 nM; with HLA-A*01:01 (setting [3]), 133 nM.
Consider CKSKNPLLY, for which the Kd was not below 67600 nM in the assay with HLA-A*23:01 (setting [3]); not below 81500 nM with HLA-A*26:01 [1] (setting [3]); not below 77600 nM with HLA-A*24:02 (setting [3]); 163 nM with HLA-A*29:02 (setting [3]); 199 nM with HLA-A*30:02 (setting [3]); not below 87700 nM in the assay with HLA-A*01:01 (setting [3]).
For FKPGTSGSPI, the Kd in the assay with HLA-B*51:01 (source organism: Dengue virus 1 Brazil/97-11/1997) was 5750 nM.
Regarding LPLPWAAGAD, the Kd was not below 22900 nM with HLA-B*51:01 (setting [5]) and 4140 nM with HLA-B*35:01 (setting [5]).
CYSQVNPTTL: the Kd with HLA-A*23:01 (setting [5]) was determined as 1330 nM; in the assay with HLA-A*24:02 (setting [5]), 326 nM.
In the case of FMMSRRRLL, the Kd was 496 nM with HLA-A*23:01 (setting [3]); not below 77900 nM with HLA-A*26:01 [1] (setting [3]); 1410 nM with HLA-A*24:02 (setting [3]); 2620 nM with HLA-A*29:02 (setting [3]); 6730 nM with HLA-A*30:02 (setting [3]); not below 78100 nM with HLA-A*01:01 (setting [3]).
Consider DPRRCMKPVI, for which the Kd in the assay with HLA-B*51:01 (source organism: Dengue virus 2 Jamaica/1409/1983) came to 9650 nM.
Regarding HTNEDDSNF, the Kd with HLA-A*26:01 [2] turned out to be 1900 nM.
On to FSKSRSTLMY, for which the Kd with HLA-A*32:01 (setting [6]) is not below 69900 nM; in the assay with HLA-A*26:01 [1] (setting [6]), 878 nM; with HLA-A*29:02 (setting [6]) it was 333 nM; in the assay with HLA-A*30:01 (setting [6]) it was 377 nM; with HLA-A*30:02 (setting [6]), 993 nM; with HLA-A*01:01 (setting [6]), 68.5 nM.
Turning to GAEHVDTSY, the Kd is not below 77800 nM in the assay with HLA-A*23:01 (setting [3]); 2450 nM with HLA-A*26:01 [1] (setting [3]); not below 77600 nM with HLA-A*24:02 (setting [3]); 722 nM with HLA-A*29:02 (setting [3]); 2900 nM in the assay with HLA-A*30:02 (setting [3]); 398 nM with HLA-A*01:01 (setting [3]).
Regarding HLSRTVVYSY, the Kd with HLA-A*32:01 (setting [7]) was determined as 671 nM; in the assay with HLA-A*26:01 [1] (setting [7]), 10600 nM; with HLA-A*29:02 (setting [7]), 1210 nM; in the assay with HLA-A*30:01 (setting [7]), 525 nM; in the assay with HLA-A*30:02 (setting [7]), 63.8 nM; with HLA-A*01:01 (setting [7]), 1330 nM.
Take LYLYALIYFL: the Kd is 22 nM with HLA-A*23:01 (setting [3]); 2460 nM in the assay with HLA-A*26:01 [1] (setting [3]); 299 nM in the assay with HLA-A*24:02 (setting [3]); 3000 nM with HLA-A*29:02 (setting [3]); 6960 nM in the assay with HLA-A*30:02 (setting [3]); 4270 nM with HLA-A*01:01 (setting [3]).
In the case of LYYPSARIVY, the Kd in the assay with HLA-A*23:01 (setting [3]) is 1910 nM; with HLA-A*26:01 [1] (setting [3]), 7360 nM; with HLA-A*24:02 (setting [3]), 2020 nM; with HLA-A*29:02 (setting [3]), 14.6 nM; in the assay with HLA-A*30:02 (setting [3]), 71.8 nM; with HLA-A*01:01 (setting [3]) it was not below 37800 nM.
For AYATAQEAY, the dissociation constant (Kd) with HLA-A*23:01 (setting [3]) was not below 77800 nM; with HLA-A*26:01 [1] (setting [3]), not below 43100 nM; with HLA-A*24:02 (setting [3]), not below 53900 nM; in the assay with HLA-A*29:02 (setting [3]), 642 nM; with HLA-A*30:02 (setting [3]) it was 50.6 nM; with HLA-A*01:01 (setting [3]), not below 98000 nM.
For the sequence LWPFIRINNL, the dissociation constant (Kd) with HLA-A*23:01 (setting [7]) was 117 nM; with HLA-A*24:02 (setting [7]), 453 nM; in the assay with HLA-A*29:02 (setting [7]), 1640 nM.
On to RVGLYGLLFY, for which the Kd was 2340 nM in the assay with HLA-A*32:01 (setting [7]); not below 69700 nM with HLA-A*26:01 [1] (setting [7]); 48.4 nM in the assay with HLA-A*29:02 (setting [7]); 4050 nM in the assay with HLA-A*30:01 (setting [7]); 36.6 nM with HLA-A*30:02 (setting [7]); 17400 nM in the assay with HLA-A*01:01 (setting [7]).
